Assay results from US20200339694A1 (CYTOMX THERAPEUTICS, published 2020).

Molecular target: T1, Av1 antibody
T1 construct: also called parental AV1 antibody; anti-IL6R antibody
Assay: FACS of the peptide displayed on cells

T1 sequence (heavy, as listed by the source, chain 1 of 2): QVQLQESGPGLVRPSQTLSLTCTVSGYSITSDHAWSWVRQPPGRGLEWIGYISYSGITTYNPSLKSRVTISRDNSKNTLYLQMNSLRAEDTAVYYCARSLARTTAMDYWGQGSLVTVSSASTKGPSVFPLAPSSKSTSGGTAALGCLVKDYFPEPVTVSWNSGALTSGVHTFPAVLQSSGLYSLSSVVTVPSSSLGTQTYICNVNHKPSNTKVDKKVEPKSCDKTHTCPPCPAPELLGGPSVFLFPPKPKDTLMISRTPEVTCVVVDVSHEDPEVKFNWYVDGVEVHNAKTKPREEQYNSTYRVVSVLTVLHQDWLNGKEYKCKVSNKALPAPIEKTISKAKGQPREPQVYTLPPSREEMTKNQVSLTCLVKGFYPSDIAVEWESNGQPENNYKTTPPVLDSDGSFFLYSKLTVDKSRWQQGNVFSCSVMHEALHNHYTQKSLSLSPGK
T1 sequence (light, as listed by the source, chain 2 of 2): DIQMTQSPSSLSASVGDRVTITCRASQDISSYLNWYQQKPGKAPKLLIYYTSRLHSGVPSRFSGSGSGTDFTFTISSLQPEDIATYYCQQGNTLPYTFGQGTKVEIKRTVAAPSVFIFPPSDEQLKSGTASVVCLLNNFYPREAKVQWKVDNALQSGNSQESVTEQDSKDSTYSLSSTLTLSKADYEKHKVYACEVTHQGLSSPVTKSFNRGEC

binding result | Binder
binds | PGAFDIPFPAHWVPNT (also called 4280; parental peptide) [Peptide 2 (SEQ ID NO: 34)]
binds | YRSCNWNYVSIFLDC (also called 4278; parental peptide) [Peptide 1 (SEQ ID NO: 33)]
